{
  "source": "paper PMC3064480",
  "origin": "cited, not measured here",
  "biological_target": "TβRII ED (Homo sapiens) (UniProt P37173)",
  "sequence (P37173 23-166)": "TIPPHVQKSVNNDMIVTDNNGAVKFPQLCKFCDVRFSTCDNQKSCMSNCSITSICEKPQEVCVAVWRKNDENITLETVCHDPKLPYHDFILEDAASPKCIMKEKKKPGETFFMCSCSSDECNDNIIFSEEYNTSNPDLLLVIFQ",
  "experiment": "SPR",
  "data": [
    {"substance": "TGF-β1 (from UniProt P01137)", "values": [
      {"measurement": "Kd", "result": 5, "unit": "pM"}
    ]}
  ]
}
